According to US20150203577A1 (Chugai, published 2015):
Where a chain is given by its changes, count along the chain named.

T1: mouse FcγRII extracellular domain, C-terminal His tag (mouse, UniProt P08101 30-210)
T1 construct: Whole entry named; also called mFcγRII; mFcgRII
T1 sequence: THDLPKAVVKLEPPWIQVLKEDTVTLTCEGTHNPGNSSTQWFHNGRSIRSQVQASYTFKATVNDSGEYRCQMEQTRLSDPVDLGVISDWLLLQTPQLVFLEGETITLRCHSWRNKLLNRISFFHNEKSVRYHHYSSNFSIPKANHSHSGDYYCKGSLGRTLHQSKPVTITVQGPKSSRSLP

T2: mouse FcγRIII extracellular domain, C-terminal His tag (mouse, UniProt P08508 31-215)
T2 construct: Whole entry named; also called mFcγRIII; mFcgRIII
T2 chain: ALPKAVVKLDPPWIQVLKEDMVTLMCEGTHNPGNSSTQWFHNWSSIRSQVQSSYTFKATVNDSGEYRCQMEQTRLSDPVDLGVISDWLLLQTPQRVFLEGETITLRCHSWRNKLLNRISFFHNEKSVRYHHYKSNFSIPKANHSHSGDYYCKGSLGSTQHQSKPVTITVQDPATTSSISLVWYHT

B1: H237-MB573/MRAL-k0 (antibody, mouse IgG1, kappa)
heavy: QVQLQESGPGLVKPSETLSLTCAVSGHSISHDHAWSWVRQPPGEGLEWIGFISYSGITNYNPSLQGRVTISRDNSKNTLYLQMNSLRAEDTAVYYCARSLARTTAMDYWGEGTLVTVSSAKTTPPSVYPLAPGSAAQTNSMVTLGCLVKGYFPEPVTVTWNSGSLSSGVHTFPAVLQSDLYTLSSSVTVPSSTWPSETVTCNVAHPASSTKVDKKIVPRDCGCKPCICTVPEESSVDIFPPKPKDVLTITLTPKVTCVVVDISKDDPEVQFSWFVDDVEVHTAQTQPREEQFNSTFRSVSELPIMHQDWLNGKEFKCRVNSAAFPAPIEKTISKTKGRPKAPQVYTIPPPKEQMAKDKVSLTCMITDFFPEDITVEWQWNGQPAENYKNTQPIMDTDGSYFVYSKLNVQKSNWEAGNTFTCSVLHEGLHNHHTEKSLSHSPGK
light: not shown
notes: copies: 2 + 2
B2: H237-MB600/MRAL-k0 (antibody, mouse IgG1, kappa)
heavy: B1 heavy with T229E, S235W, D237F
light: not shown
notes: copies: 2 + 2
B3: H237-MB614/MRAL-k0 (antibody, mouse IgG1, kappa)
heavy: B1 heavy with S234E, S235D, D237F
light: not shown
notes: copies: 2 + 2
B4: H237-MB599/MRAL-k0 (antibody, mouse IgG1, kappa)
heavy: B1 heavy with T229E, S235F, D237F
light: not shown
notes: copies: 2 + 2
B5: H237-MB589/MRAL-k0 (antibody, mouse IgG1, kappa)
heavy: B1 heavy with E233V, S234D, D237T
light: not shown
notes: copies: 2 + 2
B6: H237-MB575/MRAL-k0 (antibody, mouse IgG1, kappa)
heavy: B1 heavy with D237T
light: not shown
notes: copies: 2 + 2
B7: H237-MB605/MRAL-k0 (antibody, mouse IgG1, kappa)
heavy: B1 heavy with T229E, E233V, S234D
light: not shown
notes: copies: 2 + 2
B8: H237-MB609/MRAL-k0 (antibody, mouse IgG1, kappa)
heavy: B1 heavy with E233V, S234E, S235E, D237F, S263M
light: not shown
notes: copies: 2 + 2
B9: H237-MB598/MRAL-k0 (antibody, mouse IgG1, kappa)
heavy: B1 heavy with T229E, E233V, S234E, D237F, S263M
light: not shown
notes: copies: 2 + 2
B10: H237-MB597/MRAL-k0 (antibody, mouse IgG1, kappa)
heavy: B1 heavy with T229E, E233V, S234E
light: not shown
notes: copies: 2 + 2
B11: H237-MB619/MRAL-k0 (antibody, mouse IgG1, kappa)
heavy: B1 heavy with E233V, S234D, S235D
light: not shown
notes: copies: 2 + 2
B12: H237-MB586/MRAL-k0 (antibody, mouse IgG1, kappa)
heavy: B1 heavy with E233V, S234D, S235W, D237F
light: not shown
notes: copies: 2 + 2
B13: H237-MB608/MRAL-k0 (antibody, mouse IgG1, kappa)
heavy: B1 heavy with E233V, S234E, S235E
light: not shown
notes: copies: 2 + 2
B14: H237-MB618/MRAL-k0 (antibody, mouse IgG1, kappa)
heavy: B1 heavy with S234D, S235D, D237F
light: not shown
notes: copies: 2 + 2
B15: H237-MB579/MRAL-k0 (antibody, mouse IgG1, kappa)
heavy: B1 heavy with E233V, S235W
light: not shown
notes: copies: 2 + 2
B16: H237-MB584/MRAL-k0 (antibody, mouse IgG1, kappa)
heavy: B1 heavy with S234D, D237F
light: not shown
notes: copies: 2 + 2
B17: H237-MB588/MRAL-k0 (antibody, mouse IgG1, kappa)
heavy: B1 heavy with E233V, S234D, D237E
light: not shown
notes: copies: 2 + 2
B18: H237-MB576/MRAL-k0 (antibody, mouse IgG1, kappa)
heavy: B1 heavy with E233V, S235F
light: not shown
notes: copies: 2 + 2
B19: H237-MB591/MRAL-k0 (antibody, mouse IgG1, kappa)
heavy: B1 heavy with E233V, S234D, D237F, S294H
light: not shown
notes: copies: 2 + 2
B20: H237-MB585/MRAL-k0 (antibody, mouse IgG1, kappa)
heavy: B1 heavy with E233V, S234D, S235F, D237F
light: not shown
notes: copies: 2 + 2
B21: H237-MB612/MRAL-k0 (antibody, mouse IgG1, kappa)
heavy: B1 heavy with E233V, S234D, S235E
light: not shown
notes: copies: 2 + 2
B22: H237-MB577/MRAL-k0 (antibody, mouse IgG1, kappa)
heavy: B1 heavy with E233V, S235F, D237E
light: not shown
notes: copies: 2 + 2
B23: H237-MB603/MRAL-k0 (antibody, mouse IgG1, kappa)
heavy: B1 heavy with T229E, E233V, S234D, S235F, D237F
light: not shown
notes: copies: 2 + 2
B24: H237-MB611/MRAL-k0 (antibody, mouse IgG1, kappa)
heavy: B1 heavy with S234D, S235E, D237F
light: not shown
notes: copies: 2 + 2
B25: H237-MB578/MRAL-k0 (antibody, mouse IgG1, kappa)
heavy: B1 heavy with E233V, S235F, D237T
light: not shown
notes: copies: 2 + 2
B26: H237-MB620/MRAL-k0 (antibody, mouse IgG1, kappa)
heavy: B1 heavy with E233V, S234D, S235D, D237F, S263M
light: not shown
notes: copies: 2 + 2
B27: H237-MB617/MRAL-k0 (antibody, mouse IgG1, kappa)
heavy: B1 heavy with S235D
light: not shown
notes: copies: 2 + 2
B28: H237-MB607/MRAL-k0 (antibody, mouse IgG1, kappa)
heavy: B1 heavy with S234E, S235E, D237F
light: not shown
notes: copies: 2 + 2
B29: H237-MB587/MRAL-k0 (antibody, mouse IgG1, kappa)
heavy: B1 heavy with E233V, S234D
light: not shown
notes: copies: 2 + 2
B30: H237-MB601/MRAL-k0 (antibody, mouse IgG1, kappa)
heavy: B1 heavy with T229E
light: not shown
notes: copies: 2 + 2
B31: H237-MB581/MRAL-k0 (antibody, mouse IgG1, kappa)
heavy: B1 heavy with E233V, S235W, D237T
light: not shown
notes: copies: 2 + 2
B32: H237-MB616/MRAL-k0 (antibody, mouse IgG1, kappa)
heavy: B1 heavy with E233V, S234E, S235D, D237F, S263M
light: not shown
notes: copies: 2 + 2
B33: H237-MB580/MRAL-k0 (antibody, mouse IgG1, kappa)
heavy: B1 heavy with E233V, S235W, D237E
light: not shown
notes: copies: 2 + 2
B34: H237-MB574/MRAL-k0 (antibody, mouse IgG1, kappa)
heavy: B1 heavy with D237E
light: not shown
notes: copies: 2 + 2
B35: H237-MB604/MRAL-k0 (antibody, mouse IgG1, kappa)
heavy: B1 heavy with T229E, E233V, S234D, S235W, D237F
light: not shown
notes: copies: 2 + 2
B36: H237-MB595/MRAL-k0 (antibody, mouse IgG1, kappa)
heavy: B1 heavy with T229E, E233V, S234E, S235F, D237F
light: not shown
notes: copies: 2 + 2
B37: H237-MB615/MRAL-k0 (antibody, mouse IgG1, kappa)
heavy: B1 heavy with E233V, S234E, S235D
light: not shown
notes: copies: 2 + 2
B38: H237-MB596/MRAL-k0 (antibody, mouse IgG1, kappa)
heavy: B1 heavy with T229E, E233V, S234E, S235W, D237F
light: not shown
notes: copies: 2 + 2
B39: H237-MB602/MRAL-k0 (antibody, mouse IgG1, kappa)
heavy: B1 heavy with T229E, S234D, D237F
light: not shown
notes: copies: 2 + 2
B40: H237-MB613/MRAL-k0 (antibody, mouse IgG1, kappa)
heavy: B1 heavy with E233V, S234D, S235E, D237F, S263M
light: not shown
notes: copies: 2 + 2

molecular target: T1, mouse FcγRII extracellular domain, …; assay: SPR (Biacore T200); KD of H237-mIgG1/MRAL-k0 / KD of variant

| relative mFcγRII-binding activity (mIgG1 = 1) [fold] | Binder |
| --- | --- |
| 0.43 | B1 |
| 1.24 | B2 |
| 10.9 | B3 |
| 0.7 | B4 |
| 0.23 | B5 |
| 0.08 | B6 |
| 9.85 | B7 |
| 2.66 | B8 |
| 0.41 | B9 |
| 1.28 | B10 |
| 0.62 | B11 |
| 0.13 | B12 |
| 0.42 | B13 |
| 1.63 | B14 |
| 0.89 | B15 |
| 0.08 | B16 |
| 2.01 | B17 |
| 1.54 | B18 |
| 0.08 | B19 |
| 0.06 | B20 |

| relative mFcγRII-binding activity (mIgG1 = 1) [fold] | Binder |
| --- | --- |
| 0.81 | B21 |
| 2.51 | B22 |
| 0.12 | B23 |
| 1.11 | B24 |
| 0.39 | B25 |
| 0.23 | B26 |
| 0.84 | B27 |
| 3.14 | B28 |
| 1.33 | B29 |
| 0.55 | B30 |
| 0.69 | B31 |
| 4.06 | B32 |
| 1.38 | B33 |
| 0.27 | B34 |
| 0.34 | B35 |
| 0.09 | B36 |
| 0.59 | B37 |
| 0.55 | B38 |
| 0.26 | B39 |
| 0.24 | B40 |

Molecular target: T2, mouse FcγRIII extracellular domain, …
Assay: as above

| relative mFcγRIII-binding activity (mIgG1 = 1) [fold] | Binder |
| --- | --- |
| 0.06 | B1 |
| 0.25 | B2 |
| 0.84 | B3 |
| 0.11 | B4 |
| 0.19 | B5 |
| 0.05 | B6 |
| 4.4 | B7 |
| 0.32 | B8 |
| 0.08 | B9 |
| 0.54 | B10 |
| 0.16 | B11 |
| 0.08 | B12 |
| 0.13 | B13 |
| 0.13 | B14 |
| 0.34 | B15 |
| 0.02 | B16 |
| 1.01 | B17 |
| 0.6 | B18 |
| 0.02 | B19 |
| 0.03 | B20 |

| relative mFcγRIII-binding activity (mIgG1 = 1) [fold] | Binder |
| --- | --- |
| 0.3 | B21 |
| 1.19 | B22 |
| 0.06 | B23 |
| 0.09 | B24 |
| 0.25 | B25 |
| 0.07 | B26 |
| 0.15 | B27 |
| 0.18 | B28 |
| 0.6 | B29 |
| 0.1 | B30 |
| 0.42 | B31 |
| 0.57 | B32 |
| 0.61 | B33 |
| 0.1 | B34 |
| 0.16 | B35 |
| 0.05 | B36 |
| 0.14 | B37 |
| 0.17 | B38 |
| 0.05 | B39 |
| 0.06 | B40 |
